Experimental data published in US6348311B1, “ATM kinase modulation for screening and therapies” (St. Jude Childre's Research Hospital, priority 1999, dated 2002).
Where no end group is shown, it is not given here.

Tests used:
Assay type in all cases: biochemical
ATM kinase = biological target: T1, ATM kinase (Homo sapiens, UniProt Q13315); experiment: In vitro kinase assay, ATM with GST-peptide / GST-fusion substrates; details: for Relative Phosphorylation (%) ATM: GST-peptide substrate, relative to the p53ser15 site;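 for all read-outs here: immunoprecipitated ATM incubated with [γ-32P]ATP at 30 °C for 20 min, substrates resolved by SDS-PAGE and radiolabel incorporation quantified by PhosphorImager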
T1 construct: The full-length cDNA encoding NH2-terminal, FLAG-tagged wild-type ATM; made in house; host or cells: 293T cells, transient transfection with pcDNA-FLAG-ATMwt, anti-FLAG M2 immunoprecipitate on beads

ATR = biological target: T2, ATR (Homo sapiens, UniProt Q13535); experiment: In vitro kinase assay, ATR with GST-peptide / GST-fusion substrates; details: GST-peptide substrate; relative to the p53ser15 site
T2 construct: made in house; host or cells: 293T cells, transient transfection with pBJF-FRPwt, anti-FLAG M2 immunoprecipitate
Description: (§1) FIGS. 1A, 1B, and 1C. Phosphorylation of GST-p53 mutant peptides (amino acids 9-21) by ATM, ATR, and DNA-PK in vitro. In vitro kinase assays with immunoprecipitated, transfected flag-tagged ATM (A) or ATR (B) or purified DNA-PK (C) were performed with GST-p53 peptides containing the amino acid substitutions indicated. The amount of 32P-labeled GST-peptides was quantitated with a PhosphorImager and was normalized for each of the kinases to the level of phosphorylation of wild-type GST-p53.
(§2) FIGS. 2A, 2B, and 2C. Phosphorylation of candidate targets of by ATM, ATR and DNA-PK in vitro. GST-peptides containing the putative target sequences were used as substrates for the kinase assay.
Transfection and Kinase Activity Assays. 293T cells were transiently transfected with 10 μg of either pcDNA-FLAG-ATMwt, pcDNA-FLAG-ATMkd, pBJF-FRPwt or pBJF-FRPkd (Cliby et al., EMBO J., 17:159, 1998) using calcium phosphate and harvested two days later. Cells were lysed through sonication in TGN buffer [50 mM Tris (pH 7.5), 50 mM glycerophosphate, 150 mM NaCl, 10% glycerol, 1% Tween 20, 1 mM NaF, 1 mM NaVO4, 1 mM PMSF, […] Pepstatin A, 5 μg/ml leupeptin, 10 μg/ml Aprotinin and 1 mM DTT] as described (Brunn et al., Science, 277:99-101,1997). After centrifugation at 13,000 ×g, 2 mg of extract were incubated with mouse IgG and protein A/G sepharose beads (Calbiochem). FLAG-tagged proteins were then immunoprecipitated with anti-FLAG M2 monoclonal antibody (Eastman Kodak Company) and protein A/G sepharose beads. Immunoprecipitates were washed twice with TGN buffer, once with 100 mM Tris (pH 7.5) plus 0.5 M LiCl, and twice with kinase buffer [10 mM Hepes (pH 7.5), 50 mM glycerophosphate, 50 mM NaCl, 10 mM MgCl2, 10 mM MnCl2, 5 μM ATP, and 1 mM DTT]. Kinase reactions were initiated by resuspending washed beads in 30 μl of kinase buffer containing 10 μCi [γ-^32P]ATP and 1 μg GSTp531-101 and incubated for 30 minutes at 30° C. Proteins were electrophoretically separated by SDS-polyacrylamide gel electrophoresis, transferred to nitrocellulose, and analyzed on a PhosphorImager. FLAG-tagged proteins and GSTp531-101 were subjected to immunoblotting with either anti-FLAG M2 antibody or monoclonal antibodies directed towards the NH2-terminus of p53 (Ab-2 and Ab-6, Calbiochem) as described (Siliciano et al., Genes Dev., 11:3471, 1997).
Phosphorylation of Ser^15 of p53 by ATM and ATR/FRP1 in vitro. […] Proteins from each reaction were separated by SDS polyacrylamide gel electrophoresis (7% gel), transferred to nitrocellulose, and analyzed either on a PhosphorImager or by immunoblotting. Amounts of FLAG-tagged ATM or ATR in each kinase reaction were measured by immunoblotting with anti-FLAG M2 (top panel) and amount of [γ^32P]phosphate incorporated into ATM or ATR during the reaction (lower panel). […] An upper immunoreactive band represents phosphorylated GSTp53 fusion protein. The same exposures were used for ATM, ATR/FRP1 and corresponding substrate proteins.
(§3) Plasmids and GST-fusion protein production. For GST fusion peptide expression vectors, complementary oligonucleotides encoding desired peptides (14 amino acids) were cloned into the BamHI/SmaI site of pGEX-2T (Pharmacia). The constructs were confirmed by restriction enzyme digests and DNA sequencing. To construct the larger GST-p95 (327-391) protein fragment, p95 DNA encoding amino acids 327-391 was amplified by PCR with Pfu polymerase using the following primers: 5′ sense,
In vitro kinase assays and immunoprecipitation. […] Cleared supernatants were immunoprecipitated with anti-Flag M2 antibody and protein A/G agarose, the beads were washed with TGN buffer followed by TGN buffer plus 0.5 M LiCl, and two washes with kinase buffer [20 mM HEPES (pH 7.5), 50 mM NaCl, 10 mM MgCl2, 1 mM dithiothreitol (DTT) and 10 mM MnCl2]. […] ATP and […] of GST-fusion substrate (GST-p53:1-101), in varying concentration of Mn^2+. […]

DNA-PK = DNA-PK (Homo sapiens, UniProt P78527); experiment: In vitro kinase assay, purified DNA-PK with GST-peptide / GST-fusion substrates; details: for Relative Phosphorylation (%) DNA-PK: GST-peptide substrate, relative to the p53ser15 site
Description: as §1, §2, §3
In vitro kinase assays and immunoprecipitation. […] Cleared supernatants were immunoprecipitated with anti-Flag M2 antibody and protein A/G agarose, the beads were washed with TGN buffer followed by TGN buffer plus 0.5 M LiCl, and two washes with kinase buffer [20 mM HEPES (pH 7.5), 50 mM NaCl, 10 mM MgCl2, 1 mM dithiothreitol (DTT) and 10 mM MnCl2]. […] ATP and […] of GST-fusion substrate (GST-p53:1-101), in varying concentration of Mn^2+. The kinase reaction was conducted at 30° C. for 20 min and stopped by the addition of SDS-PAGE loading buffer. Proteins were separated on SDS-polyacrylamide gel electrophoresis (SDS-PAGE) and transferred to nitrocellulose. Radiolabeled proteins were visualized and quantitated on a Phosphorimager (Molecular Dynamics). Use of equivalent amounts of flag-tagged ATM or ATR in the different lanes was confirmed by immunoblotting with anti-flag antibody. In some reactions, either supercoiled DNA (pBluescript II KS, Stratagene) or linearized DNA (pBluescript II KS cut with EcoR1) was added ([…]). For endogenous ATM kinase reactions, endogenous ATM was immunoprecipitated from GM0536 lymphhoblasts with ATM monoclonal antibody (D16.11) in M buffer (PBS, 10% glycerol, 0.2% Tween 20, 0.3% NP-40, 1 mM NaF, 1 mM Na3VO4, 1 mM PMSF, 1x protease inhibitor mixture]. After washing with M buffer and kinase buffer, in vitro kinase reactions were carried out according to procedures described above. The DNA-PK in vitro kinase reaction was performed as previously described (Gottlieb and Jackson, 1993), using 20 ng each of DNA-PKcs or DNA-PK (20 ng DNA-PKcs premixed with 20 ng Ku 70/80).

[1] = GST-conjugated 14 amino acid peptides

T2 sequence (Q13535 whole entry, the tested form may be a part): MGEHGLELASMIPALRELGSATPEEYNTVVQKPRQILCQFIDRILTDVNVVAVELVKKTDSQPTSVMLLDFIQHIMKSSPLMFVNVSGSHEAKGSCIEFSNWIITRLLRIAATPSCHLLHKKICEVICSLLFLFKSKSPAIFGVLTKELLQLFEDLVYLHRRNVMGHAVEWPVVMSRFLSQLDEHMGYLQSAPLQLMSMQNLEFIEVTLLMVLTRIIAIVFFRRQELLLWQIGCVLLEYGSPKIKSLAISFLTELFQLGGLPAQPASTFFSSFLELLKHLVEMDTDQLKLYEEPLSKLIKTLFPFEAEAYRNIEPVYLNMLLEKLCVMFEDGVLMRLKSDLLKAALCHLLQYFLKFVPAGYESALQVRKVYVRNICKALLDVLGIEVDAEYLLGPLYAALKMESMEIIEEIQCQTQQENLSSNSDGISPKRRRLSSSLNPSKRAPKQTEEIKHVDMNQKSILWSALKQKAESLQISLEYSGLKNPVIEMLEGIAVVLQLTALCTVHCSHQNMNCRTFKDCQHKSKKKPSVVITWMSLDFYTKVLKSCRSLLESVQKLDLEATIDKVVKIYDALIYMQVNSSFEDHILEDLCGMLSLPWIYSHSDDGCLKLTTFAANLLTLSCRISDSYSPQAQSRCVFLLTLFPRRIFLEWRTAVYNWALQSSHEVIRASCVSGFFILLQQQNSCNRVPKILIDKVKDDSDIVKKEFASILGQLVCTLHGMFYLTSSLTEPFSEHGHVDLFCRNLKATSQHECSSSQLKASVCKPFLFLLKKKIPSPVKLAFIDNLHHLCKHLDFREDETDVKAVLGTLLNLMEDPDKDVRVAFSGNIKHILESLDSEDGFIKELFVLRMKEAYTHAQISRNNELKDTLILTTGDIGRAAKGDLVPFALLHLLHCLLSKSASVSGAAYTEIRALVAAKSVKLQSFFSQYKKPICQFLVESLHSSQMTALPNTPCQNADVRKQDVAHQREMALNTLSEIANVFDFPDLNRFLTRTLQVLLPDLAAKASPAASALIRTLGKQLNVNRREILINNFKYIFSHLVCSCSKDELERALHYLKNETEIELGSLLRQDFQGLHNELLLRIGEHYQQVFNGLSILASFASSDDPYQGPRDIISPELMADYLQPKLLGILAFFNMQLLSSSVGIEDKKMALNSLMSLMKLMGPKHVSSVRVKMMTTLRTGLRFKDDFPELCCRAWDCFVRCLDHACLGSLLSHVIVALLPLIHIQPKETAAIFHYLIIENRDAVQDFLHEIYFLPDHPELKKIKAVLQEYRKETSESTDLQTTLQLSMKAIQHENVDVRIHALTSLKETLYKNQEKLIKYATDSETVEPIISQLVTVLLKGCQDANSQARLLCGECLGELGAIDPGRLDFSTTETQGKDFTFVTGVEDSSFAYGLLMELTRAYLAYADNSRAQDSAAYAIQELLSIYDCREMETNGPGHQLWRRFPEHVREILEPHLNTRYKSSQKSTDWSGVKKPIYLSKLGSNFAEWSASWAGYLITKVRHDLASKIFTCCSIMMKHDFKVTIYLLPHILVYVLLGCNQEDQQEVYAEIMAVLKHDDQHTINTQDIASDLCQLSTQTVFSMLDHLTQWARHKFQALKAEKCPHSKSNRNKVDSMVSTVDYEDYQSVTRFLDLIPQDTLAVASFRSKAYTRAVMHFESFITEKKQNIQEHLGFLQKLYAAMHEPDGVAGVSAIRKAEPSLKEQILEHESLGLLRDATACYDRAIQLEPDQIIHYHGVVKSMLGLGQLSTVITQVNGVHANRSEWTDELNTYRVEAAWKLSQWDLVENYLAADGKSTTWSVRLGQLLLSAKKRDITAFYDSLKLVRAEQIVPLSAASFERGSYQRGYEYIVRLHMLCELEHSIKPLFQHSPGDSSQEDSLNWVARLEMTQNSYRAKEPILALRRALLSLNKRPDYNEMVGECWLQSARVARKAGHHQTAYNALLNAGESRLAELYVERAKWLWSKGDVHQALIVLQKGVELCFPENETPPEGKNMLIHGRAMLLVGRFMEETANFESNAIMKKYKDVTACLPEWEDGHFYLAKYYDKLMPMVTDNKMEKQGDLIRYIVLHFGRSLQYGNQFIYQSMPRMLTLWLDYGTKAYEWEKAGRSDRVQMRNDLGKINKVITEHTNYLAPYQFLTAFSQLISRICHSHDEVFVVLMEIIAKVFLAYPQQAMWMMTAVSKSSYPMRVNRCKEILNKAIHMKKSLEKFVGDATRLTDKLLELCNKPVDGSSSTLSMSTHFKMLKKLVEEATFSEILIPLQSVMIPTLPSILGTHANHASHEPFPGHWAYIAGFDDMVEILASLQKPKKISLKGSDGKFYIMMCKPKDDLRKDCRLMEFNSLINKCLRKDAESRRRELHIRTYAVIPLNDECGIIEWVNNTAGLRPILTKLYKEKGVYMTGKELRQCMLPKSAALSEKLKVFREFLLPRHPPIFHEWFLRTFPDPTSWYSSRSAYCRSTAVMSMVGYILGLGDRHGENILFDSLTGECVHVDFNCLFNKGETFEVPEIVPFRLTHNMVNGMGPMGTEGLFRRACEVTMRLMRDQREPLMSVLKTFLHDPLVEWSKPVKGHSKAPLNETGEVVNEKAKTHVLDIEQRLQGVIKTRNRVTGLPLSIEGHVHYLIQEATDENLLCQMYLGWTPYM

| Substance | Relative Phosphorylation (%) ATM (ATM kinase) [%] | Relative Phosphorylation (%) ATR (ATR) [%] | Relative Phosphorylation (%) DNA-PK (DNA-PK) [%] | phosphorylation of GST-peptide substrate by ATM (in words) (ATM kinase; [1]) | phosphorylation of GST-peptide substrate by DNA-PK (in words) (DNA-PK; [1]) |
| --- | --- | --- | --- | --- | --- |
| CUT1: GST-peptide GASPVLSQGVDPRS (SEQ ID NO:36), S1615 (also: GST fusion) | 9 | 20 | 5 |  |  |
| CtIP: GST-peptide DPGADLSQYKMDVT (SEQ ID NO:44), S664 (also: GST fusion) | 12 | 12 | 2 |  |  |
| DNA 5B: GST-peptide QPEPPVSQSEISEP (SEQ ID NO:38), S72 (also: GST fusion) | 3 | 145 | 15 |  |  |
| DNA LIG-IV: GST-peptide DLKLGVSQQTIFSV (SEQ ID NO:39), S132 (also: GST fusion) | 5 | 36 | 48 | not by ATM | phosphorylated by DNA-PKcs |
| MRE11 (SQ1): GST-peptide QQLFYISQPGSSVV (SEQ ID NO:11), S264 (also: GST fusion) | 20 | 48 | 10 |  |  |
| MRE11 (SQ2): GST-peptide FSVLRFSQKFVDRV (SEQ ID NO:12), S386 (also: GST fusion) | <1 | 17 | <1 |  |  |
| MRE11 (SQ3): GST-peptide RARALRSQSEESAS (SEQ ID NO:13), S531 (also: GST fusion) | <1 | 13 | <1 |  |  |
| PI-3K: GST-peptide DLLMYLSQLVQALK (SEQ ID NO:26), S397 (also: GST fusion) | <1 | 150 | <1 |  |  |
| PTS (123F2): GST-peptide WETPDLSQAEIEQK (SEQ ID NO:37), S61 (not fully specified (N-terminus); also: GST fusion) | 111 | 40 | 33 |  |  |
| RAD17 (SQ1): GST-peptide TWSLPLSQDSASEL (SEQ ID NO:18), S646 (not fully specified (N-terminus); also: GST fusion) | 81 | 733 | 97 |  |  |
| RAD17 (SQ2): GST-peptide ASELPASQPQPFSA (SEQ ID NO:19), S656 (not fully specified (N-terminus); also: GST fusion; listed as Homo sapiens) | 91 | 1065 | 25 |  |  |
| RPA34kD (SQ1): GST-peptide FPAPAPSQAEKKSR (SEQ ID NO:40), S33 (not fully specified (N-terminus); also: GST fusion; listed as Homo sapiens) | <1 | 5 | <1 |  |  |
| RPA34kD (SQ2): GST-peptide IVPCTISQLLSATL (SEQ ID NO:41), S52 (not fully specified (N-terminus); also: GST fusion; listed as Homo sapiens) | <1 | 31 | <1 |  |  |
| RPA34kD (SQ3): GST-peptide TGNVEISQVTIVGI (SEQ ID NO:42), S72 (not fully specified (N-terminus); also: GST fusion; listed as Homo sapiens) | <1 | 8 | <1 |  |  |
| WRN (SQ1): GST-peptide EKAYSSSQPVISAQ (SEQ ID NO:21), S1141 (not fully specified (N-terminus); also: GST fusion; listed as Homo sapiens) | 25 | 49 | 14 |  |  |
| WRN (SQ2): GST-peptide TIGMHLSQAVKAGC (SEQ ID NO:20), S1292 (not fully specified (N-terminus); also: GST fusion; listed as Homo sapiens) | 10 | 33 | 5 |  |  |
| c-ABL: GST-peptide YPGIDLSQVYELLE (SEQ ID NO:23), S446 (not fully specified (N-terminus); also: GST fusion; listed as Homo sapiens) | <1 | 8 | <1 |  |  |
